In article doi:10.1101/2023.10.27.564453:

Biological target: MIK2 ectodomain (MIK2^LRR), residues 45-707, 6 x His-MBP tagged (Arabidopsis thaliana) (UniProt Q8VZG8)
Assay: MST

Chain of UniProt Q8VZG8 (Q8VZG8 45-707): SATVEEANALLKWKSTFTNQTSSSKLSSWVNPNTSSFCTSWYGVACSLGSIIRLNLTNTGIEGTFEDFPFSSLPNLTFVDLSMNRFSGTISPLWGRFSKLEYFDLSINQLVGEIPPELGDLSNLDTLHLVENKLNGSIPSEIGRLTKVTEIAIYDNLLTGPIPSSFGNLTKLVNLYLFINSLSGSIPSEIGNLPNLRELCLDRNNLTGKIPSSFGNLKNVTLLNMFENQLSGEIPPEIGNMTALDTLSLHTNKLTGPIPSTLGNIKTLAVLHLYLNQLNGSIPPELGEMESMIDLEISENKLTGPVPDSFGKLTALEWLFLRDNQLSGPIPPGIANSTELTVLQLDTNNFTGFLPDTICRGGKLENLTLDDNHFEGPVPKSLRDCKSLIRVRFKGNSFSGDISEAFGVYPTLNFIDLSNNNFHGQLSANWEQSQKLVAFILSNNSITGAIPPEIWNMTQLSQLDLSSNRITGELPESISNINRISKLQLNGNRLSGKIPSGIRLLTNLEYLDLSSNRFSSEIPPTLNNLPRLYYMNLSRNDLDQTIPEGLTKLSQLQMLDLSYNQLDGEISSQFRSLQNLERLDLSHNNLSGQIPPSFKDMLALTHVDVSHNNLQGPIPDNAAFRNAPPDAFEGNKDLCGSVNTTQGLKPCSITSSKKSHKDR

Row | Kd [nM] | Ki [nM] | Substance
1 | 22 |  | 5-FAM-SCOOP12 peptide (N-terminally 5-FAM labelled) (from UniProt B3H7I1 44-78)
2 |  | 40.1 | SCOOP12 peptide (unlabelled) (from UniProt B3H7I1 44-78)
3 | 13.5 |  | 5-FAM-SCOOP10 peptide (SCOOP10#2, N-terminally 5-FAM labelled) (from UniProt Q9LU08 30-98)
